The values that follow are results of earlier work, collected in PMC7687380.

The data set concerns the target LRP1 (Homo sapiens) (UniProt Q07954).
Sequence of UniProt Q07954 (Q07954 20-4544): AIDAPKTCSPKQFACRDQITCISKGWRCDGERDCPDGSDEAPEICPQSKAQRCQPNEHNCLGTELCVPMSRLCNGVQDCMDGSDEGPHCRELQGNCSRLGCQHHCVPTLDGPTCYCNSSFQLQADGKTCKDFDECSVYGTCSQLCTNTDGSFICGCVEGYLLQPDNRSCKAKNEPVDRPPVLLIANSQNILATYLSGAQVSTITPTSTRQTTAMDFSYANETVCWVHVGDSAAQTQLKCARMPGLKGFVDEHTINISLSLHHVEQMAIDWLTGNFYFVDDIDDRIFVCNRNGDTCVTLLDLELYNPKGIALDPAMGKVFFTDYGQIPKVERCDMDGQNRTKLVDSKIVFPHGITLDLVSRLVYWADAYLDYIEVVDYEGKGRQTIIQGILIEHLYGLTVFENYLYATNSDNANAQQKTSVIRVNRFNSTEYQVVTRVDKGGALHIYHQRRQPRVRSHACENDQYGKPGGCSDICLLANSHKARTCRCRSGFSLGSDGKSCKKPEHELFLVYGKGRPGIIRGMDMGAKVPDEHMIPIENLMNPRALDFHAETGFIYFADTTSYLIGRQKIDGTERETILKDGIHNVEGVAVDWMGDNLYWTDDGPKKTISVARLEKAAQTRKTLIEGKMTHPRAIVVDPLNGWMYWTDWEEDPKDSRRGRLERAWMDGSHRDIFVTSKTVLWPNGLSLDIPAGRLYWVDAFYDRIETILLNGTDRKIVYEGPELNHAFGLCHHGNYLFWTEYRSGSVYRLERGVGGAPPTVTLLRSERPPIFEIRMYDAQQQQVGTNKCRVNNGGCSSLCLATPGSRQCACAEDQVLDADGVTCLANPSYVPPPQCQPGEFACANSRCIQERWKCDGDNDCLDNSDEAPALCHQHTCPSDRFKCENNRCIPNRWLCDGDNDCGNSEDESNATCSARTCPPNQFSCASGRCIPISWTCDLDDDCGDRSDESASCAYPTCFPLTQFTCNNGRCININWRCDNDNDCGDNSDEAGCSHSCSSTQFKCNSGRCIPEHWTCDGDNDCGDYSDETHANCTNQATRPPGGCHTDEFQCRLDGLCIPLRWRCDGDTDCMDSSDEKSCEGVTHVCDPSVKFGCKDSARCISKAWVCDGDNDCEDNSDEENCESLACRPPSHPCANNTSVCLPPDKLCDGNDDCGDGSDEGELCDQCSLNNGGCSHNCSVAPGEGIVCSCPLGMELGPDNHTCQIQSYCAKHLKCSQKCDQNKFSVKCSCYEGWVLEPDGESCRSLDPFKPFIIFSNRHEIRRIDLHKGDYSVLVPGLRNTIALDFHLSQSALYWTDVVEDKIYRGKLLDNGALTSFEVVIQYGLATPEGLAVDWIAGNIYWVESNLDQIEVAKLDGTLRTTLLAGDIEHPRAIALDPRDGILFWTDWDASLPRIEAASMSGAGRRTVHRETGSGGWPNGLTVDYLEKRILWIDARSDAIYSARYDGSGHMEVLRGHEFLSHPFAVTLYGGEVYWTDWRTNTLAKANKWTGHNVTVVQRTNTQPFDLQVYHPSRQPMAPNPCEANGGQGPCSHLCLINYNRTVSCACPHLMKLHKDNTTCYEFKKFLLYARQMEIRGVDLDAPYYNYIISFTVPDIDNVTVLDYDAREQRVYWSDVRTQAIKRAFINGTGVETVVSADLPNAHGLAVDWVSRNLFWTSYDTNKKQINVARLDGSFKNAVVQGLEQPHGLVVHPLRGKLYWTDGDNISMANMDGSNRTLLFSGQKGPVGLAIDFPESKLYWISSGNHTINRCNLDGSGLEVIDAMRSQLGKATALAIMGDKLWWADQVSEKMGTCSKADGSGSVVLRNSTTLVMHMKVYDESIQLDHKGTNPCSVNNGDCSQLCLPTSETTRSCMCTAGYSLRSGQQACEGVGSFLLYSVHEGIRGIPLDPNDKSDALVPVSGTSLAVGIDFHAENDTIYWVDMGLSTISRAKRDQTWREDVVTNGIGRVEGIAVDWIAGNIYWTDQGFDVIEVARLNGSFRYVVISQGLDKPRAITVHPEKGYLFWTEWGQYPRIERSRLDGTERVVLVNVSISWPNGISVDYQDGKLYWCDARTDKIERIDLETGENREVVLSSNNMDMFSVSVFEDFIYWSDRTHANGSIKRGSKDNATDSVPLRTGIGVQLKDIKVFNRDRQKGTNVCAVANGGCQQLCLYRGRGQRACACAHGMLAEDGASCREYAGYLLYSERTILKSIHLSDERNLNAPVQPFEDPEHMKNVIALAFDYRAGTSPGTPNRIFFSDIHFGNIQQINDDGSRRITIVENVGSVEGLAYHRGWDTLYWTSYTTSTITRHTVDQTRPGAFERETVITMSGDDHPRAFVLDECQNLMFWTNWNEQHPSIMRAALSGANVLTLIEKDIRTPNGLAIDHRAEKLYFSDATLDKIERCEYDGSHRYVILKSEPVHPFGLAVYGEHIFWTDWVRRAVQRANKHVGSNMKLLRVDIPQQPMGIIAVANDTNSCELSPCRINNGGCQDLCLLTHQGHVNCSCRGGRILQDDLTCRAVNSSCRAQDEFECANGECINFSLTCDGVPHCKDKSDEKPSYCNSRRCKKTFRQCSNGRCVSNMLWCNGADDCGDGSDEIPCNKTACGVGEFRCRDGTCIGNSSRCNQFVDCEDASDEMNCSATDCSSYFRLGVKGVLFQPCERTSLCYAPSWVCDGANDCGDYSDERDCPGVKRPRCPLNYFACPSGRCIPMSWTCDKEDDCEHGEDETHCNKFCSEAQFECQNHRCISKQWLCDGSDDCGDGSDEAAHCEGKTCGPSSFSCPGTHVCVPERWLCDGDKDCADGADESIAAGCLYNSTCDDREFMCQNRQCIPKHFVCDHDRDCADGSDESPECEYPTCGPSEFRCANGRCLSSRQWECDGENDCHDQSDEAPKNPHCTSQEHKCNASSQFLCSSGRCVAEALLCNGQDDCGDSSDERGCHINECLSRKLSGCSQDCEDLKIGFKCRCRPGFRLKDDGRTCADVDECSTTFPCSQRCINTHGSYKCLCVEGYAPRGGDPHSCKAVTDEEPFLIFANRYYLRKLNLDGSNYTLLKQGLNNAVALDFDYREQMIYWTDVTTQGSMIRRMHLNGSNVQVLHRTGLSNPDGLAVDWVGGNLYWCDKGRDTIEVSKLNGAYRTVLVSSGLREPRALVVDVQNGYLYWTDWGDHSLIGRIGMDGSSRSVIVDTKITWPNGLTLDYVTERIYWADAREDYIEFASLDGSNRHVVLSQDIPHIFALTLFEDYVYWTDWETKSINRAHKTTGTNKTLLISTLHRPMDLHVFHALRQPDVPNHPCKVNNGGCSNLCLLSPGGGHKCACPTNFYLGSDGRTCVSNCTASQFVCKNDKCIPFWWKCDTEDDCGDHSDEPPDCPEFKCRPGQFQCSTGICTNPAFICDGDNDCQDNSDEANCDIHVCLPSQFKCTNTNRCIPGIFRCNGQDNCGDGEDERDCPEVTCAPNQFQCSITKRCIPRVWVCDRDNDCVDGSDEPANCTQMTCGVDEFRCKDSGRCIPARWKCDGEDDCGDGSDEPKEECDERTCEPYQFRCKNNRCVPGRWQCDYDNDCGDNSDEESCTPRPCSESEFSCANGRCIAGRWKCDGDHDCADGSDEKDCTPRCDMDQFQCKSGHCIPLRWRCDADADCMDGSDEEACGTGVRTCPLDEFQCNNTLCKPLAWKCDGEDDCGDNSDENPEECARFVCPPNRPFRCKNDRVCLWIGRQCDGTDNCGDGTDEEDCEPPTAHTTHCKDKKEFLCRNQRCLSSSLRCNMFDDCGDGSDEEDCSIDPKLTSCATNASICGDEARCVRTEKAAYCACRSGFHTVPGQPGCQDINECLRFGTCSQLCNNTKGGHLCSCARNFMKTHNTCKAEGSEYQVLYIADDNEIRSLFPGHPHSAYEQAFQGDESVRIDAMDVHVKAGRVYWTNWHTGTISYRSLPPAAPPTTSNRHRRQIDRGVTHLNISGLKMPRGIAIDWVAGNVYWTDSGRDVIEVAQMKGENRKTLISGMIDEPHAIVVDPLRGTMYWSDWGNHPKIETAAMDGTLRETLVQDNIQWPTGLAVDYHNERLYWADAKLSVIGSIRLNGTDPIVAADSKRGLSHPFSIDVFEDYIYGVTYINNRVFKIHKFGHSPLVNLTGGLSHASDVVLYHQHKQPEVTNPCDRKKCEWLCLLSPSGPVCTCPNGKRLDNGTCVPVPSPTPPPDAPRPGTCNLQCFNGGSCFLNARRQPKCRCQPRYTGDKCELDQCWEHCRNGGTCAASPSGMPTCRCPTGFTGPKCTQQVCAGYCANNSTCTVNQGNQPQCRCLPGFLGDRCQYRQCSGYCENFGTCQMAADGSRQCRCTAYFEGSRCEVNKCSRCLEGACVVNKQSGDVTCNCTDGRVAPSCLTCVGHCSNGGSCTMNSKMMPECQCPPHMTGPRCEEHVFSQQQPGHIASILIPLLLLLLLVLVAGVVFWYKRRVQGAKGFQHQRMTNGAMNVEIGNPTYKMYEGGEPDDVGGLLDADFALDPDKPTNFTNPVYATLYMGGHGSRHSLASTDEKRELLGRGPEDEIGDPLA

Take RAP (from UniProt P30533): the Kd is 9 nM.
